Measurements taken from PMC9284671 (Structure (London, England : 1993), 2022).

Legend:
[1] = molecular target: MERS-CoV full-length spike (EMC) (MERS-CoV EMC/2012 (GenBank AFS88936), UniProt K0BRG7); assay: flow cytometry on cells
[2] = molecular target: SARS-CoV full-length spike (Urbani) (SARS-CoV Urbani, UniProt P59594); assay: flow cytometry on cells
[3] = molecular target: hCoV-OC43 full-length spike (hCoV-OC43 (AAT84354.1, cross-referenced …, UniProt P36334)); assay: flow cytometry on cells
[4] = molecular target: hCoV-HKU1 full-length spike (hCoV-HKU1 isolate N1, UniProt Q5MQD0); assay: flow cytometry on cells
[5] = molecular target: SARS-CoV-2 full-length spike (WA-1) (SARS-CoV-2 WA-1 (GenBank QHD43416.1), UniProt P0DTC2); assay: flow cytometry on cells
[6] = molecular target: hCoV-HKU1 S2P (pre-fusion-stabilized soluble spike) (hCoV-HKU1 isolate N1, UniProt Q5MQD0, stabilised); assay: ELISA
[7] = molecular target: hCoV-OC43 S2P (pre-fusion-stabilized soluble spike) (hCoV-OC43 (AAT84354.1, cross-referenced …, UniProt P36334, stabilised)); assay: ELISA
[8] = molecular target: SARS-CoV-2 S-dTM (soluble spike protein residues 1-1,206 of wild-type WA-1 strain) (SARS-CoV-2 WA-1, UniProt P0DTC2); assay: ELISA
[9] = molecular target: T1, SARS-CoV spike peptide #154 (PELDSFKEELDKYFKNH) (SARS-CoV); assay: far-Western, overlay or dot blot
T1 chain: PELDSFKEELDKYFKNH

[10] = molecular target: T2, SARS-CoV-2 spike S2 subunit (SARS-CoV-2 (WA-1 / Wuhan-Hu-1), UniProt P0DTC2); assay: far-Western, overlay or dot blot
[11] = molecular target: T2, SARS-CoV-2 spike S2 subunit; assay: negative-stain electron microscopy

Measured: binding result

B1: WS6 (monoclonal antibody, IgG) (antibody, V domains shown)
VH: EVQFQQSGTVLARPGASVKMSCKASGYTFTNYWIHWVKQRPGQGLEYIGGTYPGNGDTTYNQKFKGKAKVTAVTPTSTAYMDLSSLTNEDSAVYYCTRTGSYFDYWGQGTTLTVSS
VL: QIVLTQSPAIMSASPGEKVTISCSATSSVSYIYWYQQRPGSSPKPWIYRTSNLASGVPVRFSGSGSGTSYSLTISNMEAEDAATYYCQQYQSYPPTFGAGTKLELK
binds: [1] | [2] | [3] | [4] | [5] | [6] | [7] | [8] | [9] | [10]

B2: WS6 Fab (antigen-binding fragment of WS6) (Fab, V domains shown)
VH: EVQFQQSGTVLARPGASVKMSCKASGYTFTNYWIHWVKQRPGQGLEYIGGTYPGNGDTTYNQKFKGKAKVTAVTPTSTAYMDLSSLTNEDSAVYYCTRTGSYFDYWGQGTTLTVSS
VL: QIVLTQSPAIMSASPGEKVTISCSATSSVSYIYWYQQRPGSSPKPWIYRTSNLASGVPVRFSGSGSGTSYSLTISNMEAEDAATYYCQQYQSYPPTFGAGTKLELK
binds: [11]
